Patent publication US20190352664A1, “COMPOSITIONS AND METHODS FOR CONTROLLING GENE EXPRESSION” (priority 2017, published 2019)

Legend:
[1] = system: dual luciferase reporter; test: Dual luciferase assay (LUC/RLUC), transient expression; assay type: in vivo, N. benthamiana; details: 5′ leader sequence reporters
[2] = system: LUC, GFPER, TBF1-YFP; test: Transient expression of uORF-controlled LUC, GFPER and TBF1-YFP; assay type: in vivo, N. benthamiana
[3] = system: LUC reporter; assay type: in vivo, Oryza sativa cultivar ZH11

B1: BET10: R-motif-dependent gene; 5′ leader sequence tested in dual luciferase reporter (nucleic acid, listed as Arabidopsis thaliana)
DNA: TTAGGGACGGGACACTAGAGAAGGGAGGGCAGAGAGCGATTTTGTTCTCTCTCTACTTCTCGGTCGTCTTCTTCGTCTCCACTCTAGGGTTTTACTCTATCTTCTTCTTCATCATCATCTTCTACACCAATCTCTAGCGTTAATCTGTTTCTGCTGGAGAAGATTTACGCTTGTTCCTCGGTTCTCTTACTTCTGCTCCGGTTCGATCGCTTGCTAAGTGTTTCGAGTTGGTTCGCACTTCGGTGGGCGATATC
TE when PAB2 was co-expressed [1]: lower TE

B2: uORFsTBF1: 5′ leader sequence of TBF1 with two pathogen-responsive upstream open reading frames (nucleic acid)
DNA: TCTAGAAACAGCATCCGTTTTTATAATTTAATTTTCTTACAAAGGTAGGACCAACATTTGTGATCTATAAATCTTCCTACTACGTTATATAGAGACCCTTCGACATAACACTTAACTCGTTTATATATTTGTTTTACTTGTTTTGCACATACACACAAAAATAAAAAAGACTTTATATTTATTTACTTTTTAATCACACGGATTAGCTCCGGCGAAGTATGGTCGTCGTCTTCATCTTCTTCCTCCATCATCAGATTTTTCCTTAAATGGAAGAAACCAAACGAAACTCCGATCTTCTCCGTTCTCGTGTTTTCCTCTCTGGCTTTTATTGCTGGGATTGGGAATTTCTCACCGCTCTCTTGCTTTTTAGTTGCTGATTCTTTTTCCTTCGACTTTCTATTTCCAATCTTTCTTCTTCTCTTTGTGTATTAGATTATTTTTAGTTTTATTTTTCTGTGGTAAAATAAAAAAAGTTCGCCGGAG
suppression of cytosol-synthesized LUC and ER-synthesized GFPER ([2]; 35S promoter, vs mutant uorfs (ATG to CTG)): largely suppress
mRNA levels ([2]; LUC and GFPER): without significantly affecting mRNA levels
cell death induced by overexpression of TBF1 (TBF1-YFP) ([2]; vs 35S:uorfsTBF1-TBF1-YFP): tight enough to prevent cell death
translation of the LUC reporter in rice ([3]; 35S:uORFsTBF1-LUC vs 35S:uorfsTBF1-LUC): could suppress translation of the reporter in rice
LUC mRNA levels in rice ([3]; in vivo): without significantly influencing mRNA levels
